Legend:
Experiment in all cases: cell_activity; split GFP integration
Settings in all cases: tags: 3xFlag, SV40 NLS; chain copies: 2
GFP1 Left TAL-PBx = target: T1, GFP1 Left TAL-PBx (synthetic construct)
T1 chain: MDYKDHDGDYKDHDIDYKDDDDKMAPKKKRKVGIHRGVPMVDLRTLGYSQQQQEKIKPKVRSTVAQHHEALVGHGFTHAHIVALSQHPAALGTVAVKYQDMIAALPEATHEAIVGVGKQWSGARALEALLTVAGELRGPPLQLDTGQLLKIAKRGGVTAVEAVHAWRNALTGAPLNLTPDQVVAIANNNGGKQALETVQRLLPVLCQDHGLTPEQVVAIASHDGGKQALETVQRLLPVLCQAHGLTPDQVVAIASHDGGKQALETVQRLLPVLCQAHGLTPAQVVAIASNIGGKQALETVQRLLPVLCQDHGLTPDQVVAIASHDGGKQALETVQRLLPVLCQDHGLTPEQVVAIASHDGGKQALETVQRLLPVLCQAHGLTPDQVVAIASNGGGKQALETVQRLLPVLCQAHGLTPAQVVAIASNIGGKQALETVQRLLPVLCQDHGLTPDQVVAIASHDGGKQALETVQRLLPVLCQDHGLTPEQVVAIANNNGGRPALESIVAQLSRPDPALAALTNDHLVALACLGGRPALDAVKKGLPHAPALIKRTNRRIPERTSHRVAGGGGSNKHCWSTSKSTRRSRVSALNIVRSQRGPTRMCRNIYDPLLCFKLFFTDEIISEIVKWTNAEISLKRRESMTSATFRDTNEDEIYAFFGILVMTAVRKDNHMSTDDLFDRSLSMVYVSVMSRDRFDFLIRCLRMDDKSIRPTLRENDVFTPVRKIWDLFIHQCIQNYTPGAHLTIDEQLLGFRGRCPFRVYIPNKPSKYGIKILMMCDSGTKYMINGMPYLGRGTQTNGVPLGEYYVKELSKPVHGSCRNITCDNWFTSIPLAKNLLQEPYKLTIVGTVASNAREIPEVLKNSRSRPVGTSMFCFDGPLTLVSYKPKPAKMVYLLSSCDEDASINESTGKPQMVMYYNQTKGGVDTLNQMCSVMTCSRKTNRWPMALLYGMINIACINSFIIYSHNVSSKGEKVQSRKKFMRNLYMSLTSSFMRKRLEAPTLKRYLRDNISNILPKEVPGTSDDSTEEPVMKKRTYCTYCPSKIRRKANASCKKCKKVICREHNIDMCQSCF
Description: (§1) To determine if the optimal spacer length is consistent from one TAL-ssSPB to the next, similar reporters were constructed with TAL target sites for the GFP1 Left, GFP2 Right, GFP2 Left, and ZFM268 TAL-PBxs as described above. These constructs were tested using a narrower set of spacer lengths of 11 bp, 12 bp, 13 bp, 14 bp, 15 bp constructs for GFP1 Left (SEQ ID Nos. 345-349), GFP2 Left (SEQ ID Nos. 350-354), GFP2 Right (SEQ ID Nos. 355-359) and ZFM268 (SEQ ID NOs: 340-344).
(§2) Each reporter plasmid and the donor plasmid were cotransfected into HEK293T cells with the corresponding TAL-ssSPB expression plasmid. 120,000 HEK293T cells were plated in 24 well plates in 500 ul of DMEM medium supplemented with 10% FBS. The following day, a transfection mixture containing 50 ng of the TAL-ssSPB expression vector, 225 ng of the reporter plasmid, 225 ng of donor plasmid and 1 μl of JetPrime transfection reagent in a total volume of 50 μl of JetPrime buffer were assembled. The mixture was added to the HEK293T cells and the cells were incubated for four days at 37° C. at 5% CO2, splitting the cells 1:6 at day one. The percentage of on-target site-specific transposition positive cells for the various spacer length constructs were determined by FACS analysis and the results are shown in Table 18.

GFP2 Right TAL-PBx = target: T2, GFP2 Right TAL-PBx (synthetic construct)
T2 chain: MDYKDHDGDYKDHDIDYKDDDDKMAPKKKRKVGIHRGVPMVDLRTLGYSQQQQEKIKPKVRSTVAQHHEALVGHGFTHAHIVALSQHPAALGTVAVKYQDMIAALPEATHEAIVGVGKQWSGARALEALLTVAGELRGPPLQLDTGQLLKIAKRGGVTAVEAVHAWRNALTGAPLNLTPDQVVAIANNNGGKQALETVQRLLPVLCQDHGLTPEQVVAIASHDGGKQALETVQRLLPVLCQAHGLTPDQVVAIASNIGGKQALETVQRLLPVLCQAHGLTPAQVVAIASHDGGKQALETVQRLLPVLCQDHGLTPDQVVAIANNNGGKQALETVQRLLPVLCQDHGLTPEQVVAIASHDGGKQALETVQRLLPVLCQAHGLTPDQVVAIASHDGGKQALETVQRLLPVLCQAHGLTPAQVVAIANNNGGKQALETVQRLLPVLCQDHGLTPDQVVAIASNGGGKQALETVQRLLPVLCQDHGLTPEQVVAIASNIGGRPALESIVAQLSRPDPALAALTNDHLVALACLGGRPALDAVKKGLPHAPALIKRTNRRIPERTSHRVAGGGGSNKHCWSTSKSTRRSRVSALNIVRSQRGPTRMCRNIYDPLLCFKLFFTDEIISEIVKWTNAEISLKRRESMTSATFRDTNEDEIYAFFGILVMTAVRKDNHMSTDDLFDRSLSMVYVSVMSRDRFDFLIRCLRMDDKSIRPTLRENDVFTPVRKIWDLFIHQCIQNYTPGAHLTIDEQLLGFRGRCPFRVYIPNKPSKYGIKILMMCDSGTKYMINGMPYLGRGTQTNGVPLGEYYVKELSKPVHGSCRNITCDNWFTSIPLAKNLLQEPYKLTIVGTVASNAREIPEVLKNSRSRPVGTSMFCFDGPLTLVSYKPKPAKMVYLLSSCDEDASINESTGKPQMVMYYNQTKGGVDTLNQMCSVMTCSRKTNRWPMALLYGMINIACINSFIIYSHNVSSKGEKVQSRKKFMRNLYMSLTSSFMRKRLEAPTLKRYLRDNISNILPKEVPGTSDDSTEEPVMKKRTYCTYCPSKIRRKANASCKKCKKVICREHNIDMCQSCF
Description: as §1, §2

ZFM268 TAL-PBx = target: T3, ZFM268 TAL-PBx (synthetic construct)
T3 chain: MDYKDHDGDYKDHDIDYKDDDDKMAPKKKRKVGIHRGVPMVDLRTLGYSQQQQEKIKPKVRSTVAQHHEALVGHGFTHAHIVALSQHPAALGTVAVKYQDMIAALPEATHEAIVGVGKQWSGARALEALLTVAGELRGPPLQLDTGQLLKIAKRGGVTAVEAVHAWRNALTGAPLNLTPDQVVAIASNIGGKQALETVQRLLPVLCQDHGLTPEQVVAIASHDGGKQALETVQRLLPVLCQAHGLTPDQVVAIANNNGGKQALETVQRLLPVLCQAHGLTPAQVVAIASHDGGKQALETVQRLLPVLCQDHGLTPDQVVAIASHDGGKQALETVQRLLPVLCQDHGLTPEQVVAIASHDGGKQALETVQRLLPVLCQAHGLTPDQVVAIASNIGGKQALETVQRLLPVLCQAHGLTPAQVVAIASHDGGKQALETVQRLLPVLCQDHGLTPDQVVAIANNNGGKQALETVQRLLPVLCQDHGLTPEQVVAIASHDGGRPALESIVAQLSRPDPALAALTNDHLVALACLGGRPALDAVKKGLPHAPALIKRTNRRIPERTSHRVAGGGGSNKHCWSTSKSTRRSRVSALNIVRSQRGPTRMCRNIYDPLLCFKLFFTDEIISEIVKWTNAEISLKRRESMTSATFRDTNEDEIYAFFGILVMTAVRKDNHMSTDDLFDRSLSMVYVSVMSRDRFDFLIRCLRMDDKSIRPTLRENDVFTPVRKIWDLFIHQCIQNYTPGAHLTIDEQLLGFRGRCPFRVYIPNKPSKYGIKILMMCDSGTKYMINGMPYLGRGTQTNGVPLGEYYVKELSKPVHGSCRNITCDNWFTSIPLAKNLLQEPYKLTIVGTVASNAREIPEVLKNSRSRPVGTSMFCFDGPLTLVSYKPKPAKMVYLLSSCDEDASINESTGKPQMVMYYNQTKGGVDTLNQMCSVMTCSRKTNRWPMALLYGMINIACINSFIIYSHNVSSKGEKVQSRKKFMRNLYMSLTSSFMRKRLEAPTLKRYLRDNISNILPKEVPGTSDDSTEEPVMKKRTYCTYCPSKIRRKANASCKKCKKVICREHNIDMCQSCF
Description: as §1, §2

GFP2 Left TAL-PBx = target: T4, GFP2 Left TAL-PBx (synthetic construct)
T4 chain: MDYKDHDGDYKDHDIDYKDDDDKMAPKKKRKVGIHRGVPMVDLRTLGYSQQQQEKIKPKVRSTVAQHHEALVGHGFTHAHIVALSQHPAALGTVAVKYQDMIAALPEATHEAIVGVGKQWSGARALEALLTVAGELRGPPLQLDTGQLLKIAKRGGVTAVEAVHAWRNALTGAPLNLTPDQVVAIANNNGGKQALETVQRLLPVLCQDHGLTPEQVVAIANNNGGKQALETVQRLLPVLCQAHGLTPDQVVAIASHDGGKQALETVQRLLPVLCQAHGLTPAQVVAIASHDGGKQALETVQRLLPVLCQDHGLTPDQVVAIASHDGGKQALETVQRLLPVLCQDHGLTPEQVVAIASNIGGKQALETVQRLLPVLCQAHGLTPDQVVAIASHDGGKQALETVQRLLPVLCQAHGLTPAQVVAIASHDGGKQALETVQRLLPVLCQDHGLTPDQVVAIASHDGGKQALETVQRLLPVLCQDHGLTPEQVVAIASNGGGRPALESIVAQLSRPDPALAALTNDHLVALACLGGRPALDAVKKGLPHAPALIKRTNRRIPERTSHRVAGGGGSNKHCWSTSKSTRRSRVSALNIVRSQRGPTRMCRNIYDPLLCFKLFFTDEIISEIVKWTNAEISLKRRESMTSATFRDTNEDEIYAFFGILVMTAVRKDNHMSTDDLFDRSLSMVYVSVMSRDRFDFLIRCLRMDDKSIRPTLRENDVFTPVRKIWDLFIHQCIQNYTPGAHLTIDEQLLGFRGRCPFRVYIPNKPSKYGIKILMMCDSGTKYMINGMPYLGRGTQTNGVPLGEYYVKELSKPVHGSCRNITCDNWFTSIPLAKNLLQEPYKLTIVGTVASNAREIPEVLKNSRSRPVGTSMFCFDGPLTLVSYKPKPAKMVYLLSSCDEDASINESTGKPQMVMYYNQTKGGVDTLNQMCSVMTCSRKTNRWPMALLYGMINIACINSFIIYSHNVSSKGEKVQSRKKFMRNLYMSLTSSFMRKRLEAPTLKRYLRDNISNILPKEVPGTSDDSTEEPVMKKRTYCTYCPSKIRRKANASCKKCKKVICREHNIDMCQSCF
Description: as §1, §2

B1: GFP1L 12 bp spacer (dsDNA)
DNA 1: TGCCACCTACGGCAATCTCCGGCTTAACTACTGACTGAACGTAGGTGGCA
DNA 2: TGCCACCTACGTTCAGTCAGTAGTTAAGCCGGAGATTGCCGTAGGTGGCA
B1 showed an activity (GFP1 Left TAL-PBx) of 13.7 % GFP+.

B2: GFP2R 13 bp spacer (dsDNA)
DNA 1: TGCACGCCGTAGCAATCTCACGGCTTAACTACTGACCTGAATACGGCGTGCA
DNA 2: TGCACGCCGTATTCAGGTCAGTAGTTAAGCCGTGAGATTGCTACGGCGTGCA
Binder B2 has an activity (GFP2 Right TAL-PBx) of 15.8 % GFP+.

B3: GFP1L 13 bp spacer (dsDNA)
DNA 1: TGCCACCTACGGCAATCTCACGGCTTAACTACTGACCTGAACGTAGGTGGCA
DNA 2: TGCCACCTACGTTCAGGTCAGTAGTTAAGCCGTGAGATTGCCGTAGGTGGCA
In the case of B3, the activity (GFP1 Left TAL-PBx) is reported as 17 % GFP+.

B4: GFP2R 12 bp spacer (dsDNA)
DNA 1: TGCACGCCGTAGCAATCTCCGGCTTAACTACTGACTGAATACGGCGTGCA
DNA 2: TGCACGCCGTATTCAGTCAGTAGTTAAGCCGGAGATTGCTACGGCGTGCA
B4 was tested, and the activity (GFP2 Right TAL-PBx) was 16.9 % GFP+.

B5: ZFM268 TAL 13 bp spacer (dsDNA)
DNA 1: TACGCCCACGCGCAATCTCACGGCTTAACTACTGACCTGAAGCGTGGGCGTA
DNA 2: TACGCCCACGCTTCAGGTCAGTAGTTAAGCCGTGAGATTGCGCGTGGGCGTA
In the case of B5, the activity (ZFM268 TAL-PBx) is reported as 21.2 % GFP+.

B6: GFP2L 13 bp spacer (dsDNA)
DNA 1: TGGCCCACCCTGCAATCTCACGGCTTAACTACTGACCTGAAAGGGTGGGCCA
DNA 2: TGGCCCACCCTTTCAGGTCAGTAGTTAAGCCGTGAGATTGCAGGGTGGGCCA
In the case of B6, the activity (GFP2 Left TAL-PBx) is reported as 23.5 % GFP+.

B7: GFP2L 12 bp spacer (dsDNA)
DNA 1: TGGCCCACCCTGCAATCTCCGGCTTAACTACTGACTGAAAGGGTGGGCCA
DNA 2: TGGCCCACCCTTTCAGTCAGTAGTTAAGCCGGAGATTGCAGGGTGGGCCA
B7 gave an activity (GFP2 Left TAL-PBx) of 22.4 % GFP+.

B8: ZFM268 TAL 12 bp spacer (dsDNA)
DNA 1: TACGCCCACGCGCAATCTCCGGCTTAACTACTGACTGAAGCGTGGGCGTA
DNA 2: TACGCCCACGCTTCAGTCAGTAGTTAAGCCGGAGATTGCGCGTGGGCGTA
B8 showed an activity (ZFM268 TAL-PBx) of 21.8 % GFP+.
